Results from US10736988B2, “Bone substitute nanocomposites and methods of synthesis using multiphosphorylated peptides” (UNIVERSITY OF PITTSBURGH—OF THE COMMONWEALTH SYSTEM OF …, priority 2012, dated 2020).
Where two headings read alike, the source gives them in different places.

Experiments:
collagen fibrils = conditions: cited from earlier work
[1] = system: rabbit ulna critical size defect; experiment: In vivo bone regeneration, rabbit ulna critical size defect
Source text: A collagen scaffold containing […] indicated by SEQ NO. 2 peptide was implanted into a critical size defect in a rabbit ulna model. […] 2 peptide eight weeks after the surgery. […] FIG. 10A is a low-magnification image and FIG. 10B is a close up of the area in FIG. 10A identified by a rectangle, of H&E stained nondecalcified sections of the regenerating ulnar bone eight weeks after the surgery.

Molecule	collagen fibril mineralization (collagen fibrils; nonphosphorylated protein)	collagen fibril mineralization (collagen fibrils; phosphorylated protein)	bone re-growth (MicroCT) ([1]; collagen scaffold containing peptide, 8 weeks, versus no implant)	bridging of the defect (H&E nondecalcified sections) ([1]; eight weeks after the surgery)
phosphophoryn (protein, UniProt Q9NZW4 463-1301, looked up, Dentin phosphoprotein, major non-collagenous protein in dentin, Ser-Ser-Asp repeat motifs) Dentin phosphoprotein: DDPNSSDESNGNDDANSESDNNSSSRGDASYNSDESKDNGNGSDSKGAEDDDSDSTSDTNNSDSNGNGNNGNDDNDKSDSGKGKSDSSDSDSSDSSNSSDSSDSSDSDSSDSNSSSDSDSSDSDSSDSSDSDSSDSSNSSDSSDSSDSSDSSDSSDSSDSKSDSSKSESDSSDSDSKSDSSDSNSSDSSDNSDSSDSSNSSNSSDSSDSSDSSDSSSSSDSSNSSDSSDSSDSSNSSESSDSSDSSDSDSSDSSDSSNSNSSDSDSSNSSDSSDSSNSSDSSDSSDSSNSSDSSDSSDSSNSSDSSDSSDSSDSSDSSNSSDSNDSSNSSDSSDSSNSSDSSNSSDSSDSSDSSDSDSSNSSDSSNSSDSSDSSNSSDSSDSSDSSDGSDSDSSNRSDSSNSSDSSDSSDSSNSSDSSDSSDSNESSNSSDSSDSSNSSDSDSSDSSNSSDSSDSSNSSDSSESSNSSDNSNSSDSSNSSDSSDSSDSSNSSDSSNSSDSSNSSDSSDSNSSDSSDSSNSSDSSDSSDSSDSSDSSDSSNSSDSSDSSDSSDSSNSSDSSNSSDSSNSSDSSDSSDSSDSSDSSDSSDSSDSSNSSDSSDSSDSSDSSDSSDSSDSSDSSESSDSSDSSNSSDSSDSSDSSDSSDSSDSSDSSDSSDSSNSSDSSDSSDSSDSSDSSNSSDSSDSSESSDSSDSSDSSDSSDSSDSSDSSDSSDSSNSSDSSDSSDSSDSSDSSDSSDSSDSSDSSDSSDSSDSSDSSDSSDSSDSSDSNESSDSSDSSDSSDSSNSSDSSDSSDSSDSTSDSNDESDSQSKSGNGNNNGSDSDSDSEGSDSNHSTSDD	no organized mineralization of collagen fibrils was observed	highly organized mineralized collagen fibrils	–	–
dentin matrix protein 1 (protein, UniProt Q13316 17-513, looked up) Dentin matrix acidic …: LPVTRYQNNESEDSEEWKGHLAQAPTPPLESSESSEGSKVSSEEQANEDPSDSTQSEEGLGSDDHQYIYRLAGGFSRSTGKGGDDKDDDEDDSGDDTFGDDDSGPGPKDRQEGGNSRLGSDEDSDDTIQASEESAPQGQDSAQDTTSESRELDNEDRVDSKPEGGDSTQESESEEHWVGGGSDGESSHGDGSELDDEGMQSDDPESIRSERGNSRMNSAGMKSKESGENSEQANTQDSGGSQLLEHPSRKIFRKSRISEEDDRSELDDNNTMEEVKSDSTENSNSRDTGLSQPRRDSKGDSQEDSKENLSQEESQNVDGPSSESSQEANLSSQENSSESQEEVVSESRGDNPDPTTSYVEDQEDSDSSEEDSSHTLSHSKSESREEQADSESSESLNFSEESPESPEDENSSSQEGLQSHSSSAESQSEESHSEEDDSDSQDSSRSKEDSNSTESKSSSEEDGQLKNIEIESRKLTVDAYHNKPIGDQDDNDCQDGY	no organized mineralization of collagen fibrils was observed	highly organized mineralized collagen fibrils	–	–
… (derived from consensus mammalian sequence of DSPP; (8)..(68) [Asp Ser Ser] repeats (n varies from 2 to 20); (1)..(3) Insertion of 3 Arg at the N terminus of the peptide; (4)..(7) Casein kinase 1 recognition motif; (69)..(71) Casein kinase 2 recognition motif) RRRDEDESSDSSDSSDSSDSSDSSDSSDSSDSSDSSDSSDSSDSSDSSDSSDSSDSSDSSDSSDSSDDEG	–	–	significant bone re-growth	almost complete bridging of the critical size defect by bone
